Assay [1] has as its target T1, biotinylated murine DLL4 protein, truncation containing the C2, DSL, and EGF1-3 domains (DLL4 (N-EGF3)) (mouse, UniProt Q9JI71 27-324, limits assumed, biotinylated (site not stated)).
T1 construct: domain: C2, DSL, and EGF1-3 domains (N-EGF3); also called mDLL4; mouse DLL4
The assay is described as follows: yeast display, biotinylated mDLL4 + SA-647, flow cytometry. On the procedure: (§1) 162. To isolate binding molecules that interrupted the interaction of DLL4 and Notch1, we performed several rounds of selection using decreasing concentrations of biotinylated murine DLL4 protein. The mDLL4 protein was a truncation that contained the C2, DSL, and EGF1-3 domains (DLL4 (N-EGF3)). To perform a selection, the library was stained with biotinylated mDLL4, washed, incubated with streptavidin-647, washed, and then binders isolated selected using either (a) magnetic beads coated with an anti-647 antibody or (b) FACS. The mDLL4-binding yeast were then plated so that individual colonies could be picked and cultured to isolate individual clones. The clones were then each stained with mDLL4 and SA-647 and analyzed by flow cytometry to confirm that they bound to mDLL4. (FIG. 1).
For orientation: In flow cytometry, cells or beads pass a laser one at a time.

For assay [2], the target named is T2, human DLL4 (N-EGF3) (human, UniProt Q9NR61 27-323, limits assumed, biotinylated (site not stated); used unlabeled in the complex with biotinylated hNotch1 (6-13)).
T2 construct: domain: N-EGF3; also called hDLL4; hDLL4 (N-3)
The experiment in a line: yeast display, biotinylated human DLL4 (N-EGF3) + SA-647, flow cytometry. On the procedure: (§2) The eight anti-DLL4 nanobody clones were then tested for cross-reactivity between human and mouse DLL4. Yeast cells expressing each nanobody were stained with biotinylated human DLL4 (N-EGF3), washed, stained with SA-647, and then analyzed by flow cytometry.

For assay [3], the target named is T1, biotinylated murine DLL4 protein, …. The experiment in a line: yeast display, flow cytometry (FIG. 1). On the procedure:
as §1

Assay [4] concerns the target T2, human DLL4 (N-EGF3). The experiment in a line: yeast display, biotinylated human DLL4 (N-EGF3), SA-647, flow cytometry. On the procedure:
as §2

Assay [5] has as its target T3, human DLL4 (N-terminus to EGF5) (human, UniProt Q9NR61 27-401, limits assumed, biotinylated in the flow cytometry titration (site not stated); not stated for the plate-coated protein).
T3 construct: domain: N-terminus to EGF5 (C2, DSL, and EGF1-5 domains); also called recombinant human DLL4 protein containing the C2, DSL, and EGF1-5 domains
The assay is described as follows: nanobody incubated with increasing concentrations of biotinylated human DLL4 (N-terminus to EGF5), streptavidin Alexa Fluor 647, flow cytometry. On the procedure: 166. To determine the ability of the C4 and C5 nanobodies to bind DLL4, C4 and C5 nanobodies were incubated with increasing concentrations of biotinylated human DLL4 (N-terminus to EGF5) and binding was detected using streptavidin labeled with Alexa Fluor 647. Fluorescence was then monitored by flow cytometry and EC50 values were calculated for each nanobody (FIG. 5).

Experimental findings from US20250163146A1 (H LEE MOFFITT CANCER CENTER AND RESEARCH INSTITUTE, published 2025) are described below.

T1 sequence (Q9JI71 27-324 limits assumed): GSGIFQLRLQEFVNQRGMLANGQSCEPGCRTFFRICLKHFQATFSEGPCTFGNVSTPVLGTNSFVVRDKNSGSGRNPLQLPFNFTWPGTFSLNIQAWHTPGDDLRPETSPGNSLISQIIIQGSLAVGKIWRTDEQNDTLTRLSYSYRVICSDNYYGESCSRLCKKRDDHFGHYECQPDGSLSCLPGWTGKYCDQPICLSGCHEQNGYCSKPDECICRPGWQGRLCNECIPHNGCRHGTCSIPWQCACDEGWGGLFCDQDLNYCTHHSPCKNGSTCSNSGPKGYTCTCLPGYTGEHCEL
T2 sequence (Q9NR61 27-323 limits assumed): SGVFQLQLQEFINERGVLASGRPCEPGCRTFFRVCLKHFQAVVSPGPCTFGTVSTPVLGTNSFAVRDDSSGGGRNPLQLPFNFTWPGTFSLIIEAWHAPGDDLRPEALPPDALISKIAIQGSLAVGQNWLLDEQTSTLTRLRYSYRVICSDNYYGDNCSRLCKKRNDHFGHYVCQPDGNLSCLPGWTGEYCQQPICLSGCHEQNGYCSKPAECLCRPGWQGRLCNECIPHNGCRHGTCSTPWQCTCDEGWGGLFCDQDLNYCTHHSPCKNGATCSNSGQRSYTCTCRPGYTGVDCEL
T3 sequence (Q9NR61 27-401 limits assumed): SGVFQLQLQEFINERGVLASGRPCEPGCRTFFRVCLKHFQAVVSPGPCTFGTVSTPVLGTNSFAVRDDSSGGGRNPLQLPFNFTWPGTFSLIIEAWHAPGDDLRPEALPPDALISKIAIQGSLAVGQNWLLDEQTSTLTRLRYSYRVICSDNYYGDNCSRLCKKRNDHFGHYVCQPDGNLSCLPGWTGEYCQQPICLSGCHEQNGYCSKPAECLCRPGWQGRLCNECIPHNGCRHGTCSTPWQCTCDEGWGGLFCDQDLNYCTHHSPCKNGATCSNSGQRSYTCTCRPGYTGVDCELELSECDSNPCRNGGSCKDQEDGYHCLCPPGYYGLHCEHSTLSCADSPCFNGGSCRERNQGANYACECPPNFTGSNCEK

B1: nanobody clone A7 (VHH)
VHH: QVQLQESGGGLVQAGGSLRLSCAASGNIFYTYSMGWYRQAPGKEREFVAAISAGTITYYADSVKGRFTISRDNAKNTVYLQMNSLKPEDTAVYYCAVFAPRDVIHYYWGQGTQVTVSS
As to B1, the binding result in assay [1] and in assay [2] was “binds” each time.

B2: nanobody clone A8 (VHH)
VHH: QVQLQESGGGLVQAGGSLRLSCAASGTIFEERVMGWYRQAPGKEREFVAGIASGAITYYADSVKGRFTISRDNAKNTVYLQMNSLKPEDTAVYYCAAQGYSFKTKPDYSAYVLVYWGQGTQVTVSS
As to B2, the values for the binding result in assay [3] and in assay [4] were “binds” and “no binding”, respectively.

B3: nanobody clone C4 (VHH)
VHH: QVQLQESGGGLVQAGGSLRLSCAASGSISGDVEMGWYRQAPGKEREFVAGINDGGNTYYADSVKGRFTISRDNAKNTVYLQMNSLKPEDTAVYYCAVSTTYPSYNESQYADWLAYWGQGTQVTVSS
Take B3: the binding result in assay [3], in assay [2] and in assay [5] was “binds” throughout.

B4: nanobody clone C2 (VHH)
VHH: QVQLQESGGGLVQAGGSLRLSCAASGSISVVYGMGWYRQAPGKEREFVAGISYGGSTYYADSVKGRFTISRDNAKNTVYLQMNSLKPEDTAVYYCAVDASYWDTLVYWGQGTQVTVSS
For the molecule B4, the binding result in assay [3] is given as “binds”; in assay [4], “no binding”.

B5: nanobody clone C5 (VHH)
VHH: QVQLQESGGGLVQAGGSLRLSCAASGNISTGTAMGWYRQAPGKEREFVAGIAYGATTYYADSVKGRFTISRDNAKNTVYLQMNSLKPEDTAVYYCAVEVSQSTPGGRYSVAYLIYWGQGTQVTVSS
Turning to B5, the binding result in assay [3], in assay [2] and in assay [5] was “binds” throughout.

B6: nanobody clone A9 (VHH)
VHH: QVQLQESGGGLVQAGGSLRLSCAASGTISQDSGMGWYRQAPGKEREFVAGITAGSITYYADSVKGRFTISRDNAKNTVYLQMNSLKPEDTAVYYCAASYVSVQAHTYWGQGTQVTVSS
Turning to B6, the binding result is on record as “binds” in assay [3] and “no binding” in assay [4].

B7: nanobody clone B4 (VHH)
VHH: QVQLQESGGGLVQAGGSLRLSCAASGNISVWIPMGWYRQAPGKEREFVASIGEGSTTYYADSVKGRFTISRDNAKNTVYLQMNSLKPEDTAVYYCAVPYYGHSDYDYWGQGTQVTVSS
For the molecule B7, the results for the binding result in assay [3] and in assay [4] were “binds” and “no binding”, respectively.

B8: nanobody clone B1 (VHH)
VHH: QVQLQESGGGLVQAGGSLRLSCAASGTIFYSSDMGWYRQAPGKEREFVAGINRGSTTYYADSVKGRFTISRDNAKNTVYLQMNSLKPEDTAVYYCAVVSDVLTRLFYWGQGTQVTVSS
As to B8, the binding result in assay [3] and in assay [2] was “binds” in each case.
